Results from the DeepSol protein solubility set.

assay: soluble on expression in E. coli; label from the status in PepcDB or PDB records

Sequence	soluble on expression in E. coli
MGSDKIHHHHHHMCRLSLLKSSHLFKEQLLAASYSIQCVSQIAILGAPLWNALMAGANRQDQNGPANPFCRYEYLHALELSGCVGEQTGWRPMHLVVSEAGQIGENNQASAQGGDRQIDPSKVLAVMPLYLKGHSYGEYVFDWAWAQAYERHGLEYYPKLVNAIPFTPVTGSRIGFRVDLSEAQKAGLIGKIGEHLDLLTKACSASSWHSLFLLESERQPLVSKGHLQRLGTQFHWFNRDYQSFDDFLSRLTSRRRKSILKERRAITKAGLKFHFIDGAEITEDELTHFVHCYQRTYYKRSGHQGYLNAAFFSAVVKNMADKVRLLMVERPQANKLEAQAGSDARSEVGSAQEIEPIAAALYFVGGDCLYGRYWGALEEIEGLHFETCYYQGIDYAIAQRLKKFDAGAQGEHKVLRGFEPIPTYSIHEILHGDFRRAIADFIEQEARAVKIYMNELEAILPFKREGD	not soluble
MVTVPDAIKGSSPTPQQDLVRVMSAPQLYVGQEARFGGKVVAVQNQQGKTRLEIATVPLDSGARPTLGEPSRGRIYADVNGFLDPVDFRGQLVTVVGPITGAVDGKIGNTPYKFMVMQVTGYKRWHLTQQVIMPPQPIDPWFYGGRGWPYGYGGWGWYNPGPARVQTVVTELEHHHHHH	soluble
MSLSHIHFLIALATLVPVTAPAMQVSTQAPLVDATGQTLHIRGVTWPGFDRAGLTAVGMRNNTLAQLLDRMQASDINAVRVPVCAAVLQRAPVAAAEVAGDSTLRGLDSLQLLDAVVHAATQRGMHVMFAFADGGCDDRAPLLGAQQQAWTRGLVTLARRYGGNANVLGIDLGSSGYRNASWAGNAADQNWNRVASRAAAMVLAQAPRWVVGVEGVGSNAVCSDPGRKALGSNLQPFACVPLDIAPRHLVLMPKLAGPDRDTTDAFAAPGFAQALPAMWQRDFGQFAIDHTVVPVSLGGGLGDGDPRDPAWQTALSGYLANTGMRSAFLGSWETSNANNGGLLAPDGSPRADKLLILRHAWGMLPVMPAIATATGDSTKNASGTKGWNSTFTGTATSTGSGYSGGAVLLDPIPSDAFITALNSTQMNFGGIKAALAGAYLEVTGPKGKTTVYVTDLYPDGASGGLDLSYNAFAAIGNLADGHIPISWKVVRAPITGNVQYRIKEGSSRYWAAIQVRHHIYPVVKLEVKQGSTWTSLPKTPYNHFVGTNLGNKPLSIRITDIRGKVIADKIPALPEYGGSAAYFEPGHVQFPEGHHHHHH	soluble
MNHKAFAKFPSSASISPNPFTVSIPDEQLDDLKTLVRLSKIAPPTYESLQADGRFGITSEWLTTMREKWLSEFDWRPFEARLNSFPQFTTEIEGLTIHFAALFSEREDAVPIALLHGWPGSFVEFYPILQLFREEYTPETLPFHLVVPSLPGYTFSSGPPLDKDFGLMDNARVVDQLMKDLGFGSGYIIQGGDIGSFVGRLLGVGFDACKAVHLNFCNMSAPPEGPSIESLSAAEKEGIARMEKFMTDGYAYAMEHSTRPSTIGHVLSSSPIALLAWIGEKYLQWVDKPLPSETILEMVSLYWLTESFPRAIHTYREWVPTASAPNGATPYQKELYIHKPFGFSFFPKDLVPVPRSWIATTGNLVFFRDHAEGGHFAALERPRELKTDLTAFVEQVWQKGRSHHHHHH	soluble
MAHHHHHHMVVSTGEFDHPPFQFRQRHTFNTTPLHDANRFGGRTAYLREIGPVNIKKQGRRFKKDPRTVQFNVDVWCAQQTLRKRWKQRDWEVIEIPFRLVPREQQRVIPELYTDIPQMTDPARNDFSNIRNKVYDREELQGVLFPAAGTMLYPPLQRVDKQAMTLDKYL	not soluble
EVVEDVLTNAIENGSSIQDIELTLKDMPQFDRERARTTAITEVLAASSAAQHESYAQSPAVKKKKWRHSGGKKNNPRENHIDLDGTVIGVDEEFQIPGSSETCMFPRDPKLSTRERVNCHCVLS	not soluble
AHHHHHHGSQRLEESTSCRGVGDMRKAIIVGVGMTPVGEHWRSSLRDLAVEAILNAMDDAGIDKVDSLYVGNMASGSFVEQENLGALIADWAGLGNIPAVKIEAACASGGAAVQEGAKAVLSGLEDVVLVVGVEKMTDAWPSDATRYLGYAADAEWELFHGASFVALNALIMRLYMNTYGYKEEDLALFAVNAHANGAKNPYAMFKKPITVETVMKSPYIADPLKLFDASPVCDGAAAVIITTPEKAKELGIPKDKWIEIAGMGRAIDTINLANREDFLTLKAATIAAERAYKMAGVKPEDVDFFEVHDAFTVMAALSLEALGVAKKGEGAKLAIEGQIAIDGDYPIQTMGGLKARGHPVGATGVYQVVEAVLQLRGEAPDGIQVPDAEVGLTQNIGGTGSNITVTVLRRV	soluble
VTGVASAMAERLKEDGNNCFKKERFGAAIDAYTEAIALSPNVPAYWTNRALCHMKRKDWTKVEEDCRKAIQLVHNSVKAHYMLGLALLQKKEFTNGVKELQRALDLGRC	not soluble
GTPLPENENMSLYQSRVTVGELEMLASRFVGRTRVRNAFAQYWSQQRETLLPNQQASSALIRHTERVLAGVFGASSAKLVLTSALQGRKMQLEEVATIVDEASELYDFSRGLLQGAIEHIG	not soluble
MTLEIRPAVPADAEQILAFIIELADYERARHEVVTDVEGIRRSLFAEGSPTRALMCLSEGRPIGYAVYFYSYSTWLGRNGIYLEDLYVTPEYRGVGAGRRLLRELAREAVANDCGRLEWSVLDWNQPAIDFYRSIGALPQDEWVRYRLDGEALRKMAE	soluble
MSLARIIVVTSGKGGVGKTTSSAAIATGLAQKGKKTVVIDFDIGLRNLDLIMGCERRVVYDFVNVIQGDATLNQALIKDKRTENLYILPASQTRDKDALTREGVAKVLDDLKAMDFEFIVCDSPAGIETGALMALYFADEAIITTNPEVSSVRDSDRILGILASKSRRAENGEEPIKEHLLLTRYNPGRVSRGDMLSMEDVLEILRIKLVGVIPEDQSVLRASNQGEPVILDINADAGKAYADTVERLLGEERPFRFIEEEKKGFLKRLFGGEGHHHHHH	soluble
MSEVEKTYCGFIAIVGRPNVGKSTLLNELLGQKISITSRKPQTTRHRIMGIHTEGPYQAIYVDTPGLHIEEKRAINRLMNRAASSSLGDVELVIFVVEGTHWTADDEMVVNKLRSLQCPVLLAINKVDNVTDKTKLLPHMQFLSQQMNFLDVVPISAEKGMNVDTIASIVRKHMPEAEHHFPEDYITDRSQRFMASEIIREKLMRFLGEELPYSVTVEIEQFVPNERGGYNIHGLILVEREGQKKMVIGNKGSKIKVIGTEARQDMERMFEAKVHLELWVKVKSGWADDERALRSLGYTDDLK	not soluble
MSLDPQYDGVWRQSLALLAQDTAGVIPSSTAVKWLTDQQCANGAFAPFRADPAKACDAKTPVDTNNTAAAVQALWAVGGHGDVIEEALGWLKSVQNEDGGWGYVPGTPSDANSTSVVIGALTATETDPAKVVKDGKSPYDALLTFALPCAKDKGAGAFAFQPDKDGKLLPNADATAAGVLGTLGEGLVAEAGKKTGAASCADADQPDRERAAANAAAYLTDTLAKDGHLVSALGGSADQPDYGNTADAVVALAAQGGADKAAEPLAWLKKNAAKWAGEGHHHHHH	soluble
DISEELDYERGRYLDAMIDNHKYTGKARAIIYGQPELALALAKVCFENGVNVKLIALGAKNKILEEALKEEIKSQREEVLVLDDTDFDTIEKYAKEFNVNLFIGNSDGRRMASRLGIEIIRVGFPIHDRV	not soluble
MSLRESCKKDLSAGESIRKTRRISVMRSASGNETFGVICRTLYGDFIQFSTKQIVVMSTLFRSLSMSSSAGDSNLFTGNSALKNDSVVAGKPEWAQNSRRRVIPSHLAPKKKTGFHLSSSVSTRKSGGDKKDVFQAENGGEFNLLSFGTNQKRLGTGSFDRVNANSSFFDTSFAGDLTRFDDAVNSSKTQDDFLVYTNDEDMPPSRSIYDLNDEVLISLKSLQNNNEDKTSDANDPKNFRNIFVRDAPKASPSEDSNDQAKQLSNGELAILVFGYPETMANQVIAYFQEFGTILEDFEVLRKPQAMTVGLQDKQFVPIFSGNSWTKITYDNPASAVDALLENGAVFNGVLLGVIPYTKDAVERLQKRKLTSSEDIGSGITTAAAEGHHHHHH	soluble
MSLEINKGEGAVLGKEFFCEEEPGYLIEEEEEKELLEFISSGNLEIDRRLEGGIPAGSLCLLEGANDSGKSIFLQQIIWGALNQDKTVLFLTTEKTSKEVLNQMESLKRGISDYFIIGRSKIFEINAGYVEENPRLSESLLQVLLECIQRCEEELVLIDSLTIFAVNASENAVLNFFTECVKLCDRGKTILISVHGYAFSQAVLYRLRSVCSACLELRIEQVGDQWVKTMEIQKLRGARKTTGNLLSFDVDSEFGLKIIPVSKIKAEGHHHHHH	soluble
MNNFTYEKLHNNLQYLKLNTIEELLDNCLEIAARDSKTTMEVLDYLFEQEKKHREAAAIERRMKSAGFPVKKMLEEFDFEFQSSINKKVIEDLATLRFVHNAENIVLLGPPGVGKSHLAIALGIEAVKAGISVHFTNTGNLIERLKIANREGILEKKIRDLMKFKVLIIDEIGYLPFDDEGAHCLFQLISRRYEKSSTILTSNKSYGEWGEIFKDHVIAAALLDRILHHCTTINIKGESYRLKERKKQGIKTGLIRHNSTEILENLEHHHHHH	soluble
MLSAKGPQMRAFTQRVAAFSTQLQIDPIPIVFVGKGTTPRQNSLLGPNDSQYPFQGDVSFAHKPLSIRQQVENSKIERVMDDTEHNLINLLSNTNIEVDRTHLAQLKEEAMEEIQANAADVEIELSAIEAPKLLKKEMKYLFPQMETQKMNNVTVFNLTQKSEFDMKAWSEAMEEEREKLTASFIMSANAICSTLHRFGYWADFIDPSSGRPYMGDYTNHTLFETNDAYKQMGFKIEDLGCCKVLQHACWGSNAFVGTIFTDAPVDGDAVRDILKKVTQEIDE	not soluble
MAHHHHHHMYLHLIKNSTAKTPQLYTAKDNSKTAMHLLTRRAANANYTVNRWYLKEKVDSSNRMRLEGLYECVLCASCTGSCPQYWWNREHFLGPAVLLQSYRWLVEPLDRDFDERVRMFETGNLVNMCHNIFNCSITCPKFLNPGLASKEIKRLSSPSTKRVGPAIEMEPVTSGKEAGKRSLLQRL	soluble
MLPYMAYRYVKNKREKNQREMDSDLDSMVRSIVPDKTVICVPNVAAKLGEDSKEYIPGTLSIVEKSSGVFIEWKPSEDAETSWVMTSDDGNTEMVHARSPEEKQKCGARVAFSMDVNDLSSFRNDEPKRGSGGFPSIRLICRDGSSQVPLFFKNTTTAEFLDRLQGYITLRRSHRDSHLVIVVDQKSEALAKSVSMLDENGDILSRFMQNPYMTAMTGFSKITSFVQDQVIPSVLNDTDAVTQEEKIRLMRELRLAEEQMRVHSDAAGEFEVVTQLELPPRPEIYRELPVSKDLWNSFKLSNGSYDPMKLHHLKMNVFRGGLNAELRKEAWKCLLGYRQWHESDTDFQTRRAELAKQYENMKKQWMSVTEDQEKRFTKFVKRKSLVGEEIEND	not soluble
MGHHHHHHSHAESIKNQMTVKEWEKVFEMSQDKNLYHNLCTSLFPTIHGNDEVKRGVLLMLFGGVPKTTGEGTSLRGDINVCIVGDPSTAKSQFLKHVEEFSPRAVYTSGKASSAAGLTAAVVRDEESHEFVIEAGALMLADNGVCCIDEFDKMDVRDQVAIHEAMEQQTISITKAGVKATLNARTSILAAANPISGHYDRSKSLKQNINLSAPIMSRFDLFFILVDECNEVTDYAIARRIVDLHSRIEESIDRVYSLDDIRRYLLFARQFKPKISKESEDFIVEQYKHLRQRDGSGVTKSSWRITVRQLESMIRLSEAMARMHCCDEVQPKHVKEAFRLLNKSIIRVETPDVNLDQEEE	not soluble
